Molecular target: N-methyl-D-aspartate (NMDA) receptor (rat)

Substance: neuron regulatory factor (NRF) from rat
- anterior thalamic neuron survival over controls: 700%

— patent US6262024
